B1: FH18-20 (domain or fragment)
chain: TSCVNPPTVQNAYIVSRQMSKYPSGERVRYQCRSPYEMFGDEEVMCLNGNWTEPPQCKDSTGKCGPPPPIDNGDITSFPLSVYAPASSVEYQCQNLYQLEGNKRITCRNGQWSEPPKCLHPCVISREIMENYNIALRWTAKQKLYSRTGESVEFVCKRGYRLSSRSHTLRTTCWDGKLEYPTCAKR
B2: FHR-1 (factor H-related protein 1, FHR-1*B, wild-type) (natural protein)
chain: EATFCDFPKINHGILYDEEKYKPFSQVPTGEVFYYSCEYNFVSPSKSFWTRITCTEEGWSPTPKCLRLCFFPFVENGHSESSGQTHLEGDTVQIICNTGYRLQNNENNISCVERGWSTPPKCRSTDTSCVNPPTVQNAYIVSRQMSKYPSGERVRYQCRSPYEMFGDEEVMCLNGNWTEPPQCKDSTGKCGPPPPIDNGDITSFPLSVYAPASSVEYQCQNLYQLEGNKRITCRNGQWSEPPKCLHPCVISREIMENYNIALRWTAKQKLYLRTGESAEFVCKRGYRLSSRSHTLRTTCWDGKLEYPTCAKR
B3: FH18-20(LV) (domain or fragment)
chain: TSCVNPPTVQNAYIVSRQMSKYPSGERVRYQCRSPYEMFGDEEVMCLNGNWTEPPQCKDSTGKCGPPPPIDNGDITSFPLSVYAPASSVEYQCQNLYQLEGNKRITCRNGQWSEPPKCLHPCVISREIMENYNIALRWTAKQKLYLRTGESVEFVCKRGYRLSSRSHTLRTTCWDGKLEYPTCAKR
B4: FH18-20(LA) (domain or fragment)
chain: TSCVNPPTVQNAYIVSRQMSKYPSGERVRYQCRSPYEMFGDEEVMCLNGNWTEPPQCKDSTGKCGPPPPIDNGDITSFPLSVYAPASSVEYQCQNLYQLEGNKRITCRNGQWSEPPKCLHPCVISREIMENYNIALRWTAKQKLYLRTGESAEFVCKRGYRLSSRSHTLRTTCWDGKLEYPTCAKR
B5: FH18-20(SA) (domain or fragment)
chain: TSCVNPPTVQNAYIVSRQMSKYPSGERVRYQCRSPYEMFGDEEVMCLNGNWTEPPQCKDSTGKCGPPPPIDNGDITSFPLSVYAPASSVEYQCQNLYQLEGNKRITCRNGQWSEPPKCLHPCVISREIMENYNIALRWTAKQKLYSRTGESAEFVCKRGYRLSSRSHTLRTTCWDGKLEYPTCAKR

biological target: C3b (UniProt P01024 749-1663; P01024 749-1663, biotin (EZ-Link Maleimide-PEG2-Biotin, after 1 mM DTT) where immobilised on streptavidin chips; none where amine-coupled); experiment: SPR; biotin-coupled C3b
Sequence (P01024 23-667, chain 1 of 2): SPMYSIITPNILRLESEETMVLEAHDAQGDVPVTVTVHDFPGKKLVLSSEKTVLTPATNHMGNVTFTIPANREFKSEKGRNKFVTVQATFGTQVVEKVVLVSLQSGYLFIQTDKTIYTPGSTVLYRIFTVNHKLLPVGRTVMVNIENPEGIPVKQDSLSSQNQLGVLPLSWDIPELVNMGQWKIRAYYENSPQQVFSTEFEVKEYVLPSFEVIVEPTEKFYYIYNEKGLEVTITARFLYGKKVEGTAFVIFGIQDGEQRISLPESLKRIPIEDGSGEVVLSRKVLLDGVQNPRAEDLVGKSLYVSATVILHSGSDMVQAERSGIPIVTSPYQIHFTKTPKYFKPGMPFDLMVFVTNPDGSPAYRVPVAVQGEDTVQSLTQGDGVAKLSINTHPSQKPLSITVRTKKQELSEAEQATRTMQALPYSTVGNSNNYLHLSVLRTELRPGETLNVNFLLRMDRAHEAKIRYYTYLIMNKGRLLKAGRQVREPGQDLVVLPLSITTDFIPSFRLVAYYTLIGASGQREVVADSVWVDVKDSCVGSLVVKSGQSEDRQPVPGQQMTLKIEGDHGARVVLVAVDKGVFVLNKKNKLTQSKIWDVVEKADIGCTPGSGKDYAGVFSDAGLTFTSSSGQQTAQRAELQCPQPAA
Sequence (P01024 749-1663, chain 2 of 2): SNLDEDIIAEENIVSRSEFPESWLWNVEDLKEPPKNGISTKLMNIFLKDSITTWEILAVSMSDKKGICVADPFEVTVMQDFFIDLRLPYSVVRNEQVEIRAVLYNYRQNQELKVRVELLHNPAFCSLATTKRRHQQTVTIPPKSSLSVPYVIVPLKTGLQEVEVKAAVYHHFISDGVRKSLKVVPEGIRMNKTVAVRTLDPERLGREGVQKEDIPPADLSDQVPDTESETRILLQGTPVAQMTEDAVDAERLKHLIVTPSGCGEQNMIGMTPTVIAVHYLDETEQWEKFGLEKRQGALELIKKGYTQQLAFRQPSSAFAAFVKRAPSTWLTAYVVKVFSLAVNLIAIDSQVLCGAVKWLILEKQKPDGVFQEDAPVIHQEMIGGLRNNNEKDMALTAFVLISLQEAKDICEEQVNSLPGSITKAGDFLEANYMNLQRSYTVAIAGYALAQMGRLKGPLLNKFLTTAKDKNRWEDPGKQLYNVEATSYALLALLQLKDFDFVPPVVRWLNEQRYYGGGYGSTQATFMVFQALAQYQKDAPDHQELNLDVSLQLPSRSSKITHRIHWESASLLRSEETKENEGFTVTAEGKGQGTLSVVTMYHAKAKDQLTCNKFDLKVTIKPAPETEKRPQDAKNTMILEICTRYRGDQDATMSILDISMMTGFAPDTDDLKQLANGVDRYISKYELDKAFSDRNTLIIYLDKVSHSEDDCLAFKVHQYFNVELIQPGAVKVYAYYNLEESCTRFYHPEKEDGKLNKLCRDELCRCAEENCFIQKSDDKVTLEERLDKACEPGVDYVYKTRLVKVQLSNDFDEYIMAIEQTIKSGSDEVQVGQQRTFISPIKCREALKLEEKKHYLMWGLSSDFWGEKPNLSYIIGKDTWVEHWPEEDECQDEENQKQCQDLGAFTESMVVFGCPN

First: B1
Second: B2
The Kd of the first is 16-fold higher: 9.9 µM for the first, 0.6 µM for the second.

B3 and B4 are within 1.5-fold of each other in Kd: 5.6 µM for the first, 5.8 µM for the second.

B5 was tested, and the Kd was 10 µM.
